Experimental data taken from the supplement of paper PMC7877785.
± gives the uncertainty stated by the source.

Assay: self-splicing fitness, log relative to wild type (ln ratio); higher = more splicing; Tetrahymena group I intron in knt gene, E. coli kanamycin selection, DiMSum; sequences stand for … in CUCUCU…GGAGGGAAAAGUUAUCAGGCAUGCACCUGGUAGCUAGUCUUUAAACCAAUAGAUUGCAUCGGUUUAAAAGGCAAGACCGUCAAAUUGCGGGAAAGGGGUCAACAGCCGUUCAGUACCAAGUCUCAGGGGAAACUUUGAGAUGGCCUUGCAAAGGGUAUGGUAAUAAGCUGACGGACAUGGUCCUAACCACGCAGCCAAGUCCUAAGUCAACAGAUCUUCUGUUGAUAUGGAUGCAGUUCACAGACUAAAUGUCGGUCGGGGAAGAUGUAUUCUUCUCAUAAGAUAUAGUCGGACCUCUCCUUAAUGGGAGCUAGCGGAUGAAGUGAUGCAACACUGGAGCCGCUGGGAACUAAUUUGUAUGCGAAAGUAUAUUGAUUAGUUUUGGAGUACUCGUGGUCG
Procedure, shortened: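 The eight P1ex-region nucleotides of an intron in the knt kanamycin-resistance gene on pET-22b(+) were all randomised and the library put into E. coli BL21(DE3). Six replicate transformations were grown overnight at 37°C or 30°C on LB agar with or without 25 μg/mL kanamycin, together with 100 μg/mL carbenicillin, 50 μM IPTG and 0.2% rhamnose. Colonies were pooled and amplicon-sequenced on an Illumina HiSeq 2500. Fitness from DiMSum is the error-weighted combination of wild-type-normalised replicate fold changes, kanamycin over none.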

Sequence	self-splicing fitness (ln) (30 °C)	self-splicing fitness (ln) (37 °C)
UUUUAGCAAUAUUACGCCCU	-2.16 ± 0.35	-0.426 ± 0.28
UUUUAGCAAUAUUACGGGUU	–	-2.26 ± 0.29
UUUUAGCAAUAUUACGGUGU	-3.34 ± 0.38	–
UUUUAGCAAUAUUACGGUUG	-1.77 ± 0.15	-0.623 ± 0.23
UUUUAGCAAUAUUACGUACU	–	0.399 ± 0.37
UUUUAGCAAUAUUACGUGUA	-2.96 ± 0.27	-1.84 ± 0.17
